Results: article PMC5591402
Positions count from the first letter of the chain named. In names and notes the source's numbering stands.

T1: TAMRA-labeled α-synuclein peptide
T1 chain: GYQDYEPEA

B1: N2.17 VHH F100fS (protein)
chain: QGQLVESGGGSVQAGGSLRLSCAASGIDSSSYCMGWFRQRPGKEREGVARINGWGGVKTAYADSVKDRFTISRDNAENTVYLQMNSLKPEDTAIYYCAAKSSPGYCGGTWSNFGYWGQGTQVTVSS
B2: N2.17 VHH S96F (protein)
chain: B1 chain with S101F, S111F
B3: N2.17 VHH T100dS (protein)
chain: B1 chain with T109S, S111F
B4: N2.17 VHH W52bL (protein)
chain: B1 chain with W54L, S111F
B5: N2.12 VHH W52bL (protein)
chain: B1 chain with A49G, W54L, G55R, V57I
B6: N2.12 VHH R53G (protein)
chain: B1 chain with A49G, V57I
B7: N2.12 VHH S96F (protein)
chain: B1 chain with A49G, G55R, V57I, S101F
B8: N2.12 VHH G49A (protein)
chain: B1 chain with G55R, V57I
B9: N2.12 VHH T100dS (protein)
chain: B1 chain with A49G, G55R, V57I, T109S

Target: T1, TAMRA-labeled α-synuclein peptide
Assay: fluorescence polarization
Conditions: chain shown with the change;; parent: est. 8.6 x10^7 M^-1; read off a plot

Ka | Binder
9.6 x10^7 M^-1 | B1
1.6 x10^7 M^-1 | B2
3.8 x10^7 M^-1 | B3
3.3 x10^7 M^-1 | B4

Same assay, conditions: chain shown with the change;; parent: est. 13 x10^7 M^-1; read off a plot

Ka | Binder
6.2 x10^7 M^-1 | B5
7.1 x10^7 M^-1 | B6
6.7 x10^7 M^-1 | B7
13 x10^7 M^-1 | B8
8.5 x10^7 M^-1 | B9
